Laboratory results published in US20250270287A1 (KEROS THERAPEUTICS, published 2025).
Positions count from the first letter of the chain named.

T1: Activin A (UniProt P08476 311-426)
T1 sequence (looked up): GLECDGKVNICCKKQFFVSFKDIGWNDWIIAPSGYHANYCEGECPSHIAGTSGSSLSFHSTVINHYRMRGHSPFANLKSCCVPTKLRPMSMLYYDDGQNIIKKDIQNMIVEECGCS

T2: BMP-9 (UniProt Q9UK05 320-429)
T2 sequence (looked up): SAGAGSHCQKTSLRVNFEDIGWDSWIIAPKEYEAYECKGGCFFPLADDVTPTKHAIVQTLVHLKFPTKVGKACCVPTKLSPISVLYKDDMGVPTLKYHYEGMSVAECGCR

T3: GDF-11 (UniProt O95390 299-407)
T3 sequence (looked up): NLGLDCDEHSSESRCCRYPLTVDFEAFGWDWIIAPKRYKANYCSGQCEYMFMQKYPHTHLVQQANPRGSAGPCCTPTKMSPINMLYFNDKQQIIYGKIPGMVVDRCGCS

T4: Activin B (UniProt P09529 293-407)
T4 sequence (looked up): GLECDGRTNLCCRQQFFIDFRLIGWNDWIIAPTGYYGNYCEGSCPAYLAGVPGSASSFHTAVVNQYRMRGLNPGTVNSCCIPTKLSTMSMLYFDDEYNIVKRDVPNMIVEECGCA

T5: BMP-10 (UniProt O95393 317-424)
T5 sequence (looked up): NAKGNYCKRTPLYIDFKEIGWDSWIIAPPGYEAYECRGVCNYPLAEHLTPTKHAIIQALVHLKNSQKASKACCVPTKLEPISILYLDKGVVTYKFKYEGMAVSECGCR

T6: growth differentiation factor 8 (GDF-8) (UniProt O14793 267-375)
T6 construct: also called myostatin
T6 sequence (looked up): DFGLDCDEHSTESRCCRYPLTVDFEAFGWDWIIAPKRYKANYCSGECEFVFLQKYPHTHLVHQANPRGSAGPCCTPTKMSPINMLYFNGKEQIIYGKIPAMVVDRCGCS

B1: ActRIIB-B1B2B3B4 (SEQ ID NO: 119) chimera-Fc protein (Fc fusion)
chain: GRGEAETRECLFFNANWELERTNQTGVEPCEGEQDKRRHCFATWKNISGSIEIVKQGCWLDDFNCYDRQECVATEENPQVYFCCCEGNFCNERFTHLPEAGGPEVTYEPPPTAPT
notes: Tested as chimera-Fc protein; not shown: linker (if any) and Fc domain
B2: ActRIIB-A8 (SEQ ID NO: 126) chimera-Fc protein (Fc fusion)
chain: GRGEAETRECIYYNANWELERTNQSGLERCEGEQDKRLHCYASWRNSSGTIELVKKGCWLDDFNCYDRQECVATEENPQVYFCCCEGNFCNERFTHLPEMEVTQPTS
notes: as for B1
B3: ActRIIA-A8 (SEQ ID NO: 110) chimera-Fc protein (Fc fusion)
chain: GAILGRSETQECLFFNANWEKDRTNQTGVEPCYGDKDKRRHCFATWKNISGSIEIVKQGCWLDDINCYDRTDCVEKKDSPEVYFCCCEGNMCNEKFSYFPEAGGPEVTYEPPPTAPT
notes: as for B1
B4: ActRIIA-A3 (SEQ ID NO: 106) chimera-Fc protein (Fc fusion)
chain: GAILGRSETQECLFFNANWEKDRTNQTGVEPCEGEQDKRRHCFATWKNISGSIEIVKQGCWLDDINCYDRTDCVEKKDSPEVYFCCCEGNMCNEKFSYFPEMEVTQPTS
notes: as for B1
B5: ActRIIA-B1B7 (SEQ ID NO: 101) chimera-Fc protein (Fc fusion)
chain: B4 chain with L13I, F14Y, F15Y, E33Y, E35D, Q36K, K95R, S97T, Y98H, F99L
notes: Tested as chimera-Fc protein; also called ActRIIA-B1β7; not shown: linker (if any) and Fc domain
B6: ActRIIA-B2B4 (SEQ ID NO: 103) chimera-Fc protein (Fc fusion)
chain: B4 chain with F14E, T27S, V29L, P31R, E33Y, E35D, Q36K, S52T, I55L, Q58K
notes: as for B1
B7: ActRIIA-B7 (SEQ ID NO: 100) chimera-Fc protein (Fc fusion)
chain: B4 chain with E33Y, E35D, Q36K, K95R, S97T, Y98H, F99L
notes: as for B1
B8: ActRIIA-B3 (SEQ ID NO: 97) chimera-Fc protein (Fc fusion)
chain: B4 chain with E33Y, E35D, Q36K, R40L, F43Y, T45S, K47R, I49S
notes: as for B1
B9: ActRIIA-A5 (SEQ ID NO: 107) chimera-Fc protein (Fc fusion)
chain: B4 chain with E33Y, E35D, Q36K, I65F, T71Q, D72E
notes: as for B1
B10: ActRIIA-B4 (SEQ ID NO: 98) chimera-Fc protein (Fc fusion)
chain: B4 chain with E33Y, E35D, Q36K, S52T, I55L, Q58K
notes: as for B1
B11: ActRIIA-B1B4 (SEQ ID NO: 102) chimera-Fc protein (Fc fusion)
chain: B4 chain with L13I, F14Y, F15Y, E33Y, E35D, Q36K, S52T, I55L, Q58K
notes: Tested as chimera-Fc protein; also called ActRIIA-B1β4; not shown: linker (if any) and Fc domain
B12: ActRIIA-A6 (SEQ ID NO: 108) chimera-Fc protein (Fc fusion)
chain: B4 chain with E33Y, E35D, Q36K, K77E, D78E, S79N, E81Q
notes: as for B1
B13: ActRIIA-A1 (SEQ ID NO: 104) chimera-Fc protein (Fc fusion)
chain: GRGEAETRECLFFNANWEKDRTNQTGVEPCYGDKDKRRHCFATWKNISGSIEIVKQGCWLDDINCYDRTDCVEKKDSPEVYFCCCEGNMCNEKFSYFPEMEVTQPTS
notes: as for B1

These binders were tested against T1, Activin A (assay: cell-based or functional assay).

| Binder | IC50, SBE-luciferase reporter in HEK293 cells [mg/L] |
| --- | --- |
| B1 | 0.13 |
| B2 | 0.23 |

The binders below were run against T2, BMP-9 (assay: cell-based or functional assay).

| Binder | IC50, BRE-luciferase reporter in C2C12 cells [mg/L] |
| --- | --- |
| B1 | 0.36 |
| B2 | 3.6 |

These binders were tested against T3, GDF-11 (assay: cell-based or functional assay).

| Binder | IC50, SBE-luciferase reporter in HEK293 cells [mg/L] |
| --- | --- |
| B1 | 0.14 |
| B2 | 0.13 |

These binders were tested against T4, Activin B (assay: cell-based or functional assay).

| Binder | IC50, SBE-luciferase reporter in HEK293 cells [mg/L] |
| --- | --- |
| B1 | 0.086 |
| B2 | 0.052 |

Molecular target: T1, Activin A
Assay: cell-based or functional assay
Remark: another data set of the same source

| Binder | IC50, SBE-luciferase reporter in HEK293 cells [mg/L] |
| --- | --- |
| B3 | 0.075 |
| B4 | 0.63 |
| B5 | 1.4 |
| B6 | 0.7 |
| B7 | 0.84 |
| B8 | 0.14 |
| B9 | 0.3 |
| B10 | 0.32 |
| B11 | 0.75 |
| B12 | 0.33 |
| B13 | 0.64 |

Molecular target: T2, BMP-9
Assay: cell-based or functional assay
Remark: another data set of the same source

| Binder | IC50, BRE-luciferase reporter in C2C12 cells [mg/L] |
| --- | --- |
| B3 | 1.9 |
| B4 | 12 |
| B5 | > 50 |
| B6 | > 50 |
| B7 | 21 |
| B8 | > 50 |
| B9 | 4.2 |
| B10 | > 50 |
| B11 | > 50 |
| B12 | 8.8 |
| B13 | 50 |

Molecular target: T3, GDF-11
Assay: cell-based or functional assay
Remark: another data set of the same source

| Binder | IC50, SBE-luciferase reporter in HEK293 cells [mg/L] |
| --- | --- |
| B3 | 0.18 |
| B4 | 0.19 |
| B5 | 0.39 |
| B6 | 0.29 |
| B7 | 0.23 |
| B8 | 0.13 |
| B9 | 0.23 |
| B10 | 0.22 |
| B11 | 0.26 |
| B12 | 0.077 |
| B13 | 0.24 |

Molecular target: T4, Activin B
Assay: cell-based or functional assay
Remark: another data set of the same source

| Binder | IC50, SBE-luciferase reporter in HEK293 cells [mg/L] |
| --- | --- |
| B3 | 0.1 |
| B4 | 0.24 |
| B5 | 0.25 |
| B6 | 0.16 |
| B7 | 0.18 |
| B8 | 0.071 |
| B9 | 0.073 |
| B10 | 0.094 |
| B11 | 0.13 |
| B12 | 0.1 |
| B13 | 0.21 |

These binders were tested against T5, BMP-10 (assay: SPR (Biacore 8K), Fc protein captured on anti-human IgG, ligand injected).
Protocol: (§1) The Cytiva Biacore 8k was used to measure the kinetics of the interactions between the ActRII- and chimera-Fc proteins and Activin A/Activin B/growth differentiation factor 8 (GDF-8)/GDF-11/BMP-9/BMP-10. Series S CM4 Sensor Chips were immobilized with anti-human capture antibody using the reagents and protocol in the Biacore Human Antibody Capture Kit (GE Life Sciences). Briefly, anti-human IgG was diluted to 25 μg/mL in immobilization buffer. The carboxylated surface of the sensor was activated by injecting a mixture of EDC and NHS. The anti-human IgG was injected into the activated sensor chip flow cells at 10 μL/min for a total of 7 minutes until the chip reached an immobilization level of 3000 resonance units (RU). Ethanolamine was injected to deactivate the sensor surfaces. The chip has 8 flow cells to be used for binding analysis, each with an in-line reference surface to subtract instrument noise and non-specific binding to the sensor chip. The ActRII- and chimera-Fc proteins were captured in their own flow cell to allow for a maximum analyte binding response of 20-30 RU. This was done by injecting 10-20 μL of the ActRII- and chimera-Fc proteins into the flow cells at a concentration of 2 μg/mL until 60-90 RU was captured. Ligand at a single concentration was injected at […] for 60 seconds and then allowed to dissociate under buffer flow for no less than 5 minutes. After the cycle completed, captured protein was stripped from the chip with an injection of 3 M magnesium chloride, the regeneration buffer provided with the Biacore Human Antibody Capture Kit. Each ligand was injected in a concentration series, including a buffer only 0 nM concentration to serve as a double reference for subtracting out instrument noise. The data were analyzed using the Biacore Insight Evaluation Software.

| Binder | Kd [nM] |
| --- | --- |
| B1 | 0.369 |
| B2 | 0.0292 |
| B3 | 0.0397 |
| B4 | 0.0289 |
| B5 | 0.2 |
| B6 | 0.0605 |
| B7 | 0.141 |
| B8 | 0.0122 |
| B9 | 0.126 |
| B10 | 0.046 |
| B11 | 0.227 |
| B12 | 0.347 |
| B13 | 0.0663 |

What follows are binders tested against T1, Activin A in the same assay as above.
Protocol: as §1

| Binder | Kd [nM] |
| --- | --- |
| B1 | 0.0066 |
| B2 | 0.0442 |
| B3 | 0.04 |
| B4 | 0.0357 |
| B5 | 0.0217 |
| B6 | 0.016 |
| B7 | 0.024 |
| B8 | 0.0256 |
| B9 | 0.048 |
| B10 | 0.0186 |
| B11 | 0.024 |
| B12 | 0.032 |
| B13 | 0.0703 |

The binders below were run against T2, BMP-9 in the same assay as above.
Protocol: as §1

| Binder | Kd [nM] |
| --- | --- |
| B1 | 1.08 |
| B2 | 0.074 |
| B3 | 8.1 |
| B4 | 18 |
| B5 | 77.2 |
| B6 | 13.1 |
| B7 | 58.9 |
| B8 | 13.6 |
| B9 | 2.55 |
| B10 | 13.6 |
| B11 | 32.9 |
| B12 | 49.7 |
| B13 | 62 |

Each binder was assayed against T6, growth differentiation factor 8 (GDF-8) in the same assay as above.
Protocol: as §1

| Binder | Kd [nM] |
| --- | --- |
| B1 | 0.00354 |
| B2 | 0.00423 |
| B3 | 0.229 |
| B4 | 0.0977 |
| B5 | 0.0898 |
| B6 | 0.0672 |
| B7 | 0.0121 |
| B8 | 0.0248 |
| B9 | 0.122 |
| B10 | 0.115 |
| B11 | 0.125 |
| B12 | 0.0682 |
| B13 | 0.203 |

The binders below were run against T3, GDF-11 in the same assay as above.
Protocol: as §1

| Binder | Kd [nM] |
| --- | --- |
| B1 | < 0.001 |
| B2 | < 0.001 |
| B3 | < 0.001 |
| B4 | < 0.001 |
| B5 | < 0.001 |
| B6 | < 0.001 |
| B7 | < 0.001 |
| B8 | < 0.001 |
| B9 | 0.00665 |
| B10 | < 0.001 |
| B11 | 3.43 |
| B12 | < 0.001 |
| B13 | < 0.001 |

These binders were tested against T4, Activin B in the same assay as above.
Protocol: as §1

| Binder | Kd [nM] |
| --- | --- |
| B1 | 0.0197 |
| B2 | < 0.001 |
| B3 | < 0.001 |
| B4 | 0.0755 |
| B5 | 0.0249 |
| B6 | < 0.001 |
| B7 | 0.00889 |
| B8 | < 0.001 |
| B9 | 0.0174 |
| B10 | < 0.001 |
| B11 | 0.00531 |
| B12 | 0.0558 |
| B13 | 0.0199 |
